Inhibition of canine TNF-alpha bioactivity (1 ng/ml) in 293-HEK cells with NF-kB-EGFP reporter construct pTRH1; IC50 data for one substance are collected here from patent US20150037333A1.

The assay deals with canine TNF-alpha (canine) (UniProt P51742). As to the kind of experiment: cell-based or functional assay.
Chain of canine TNF-alpha (canine) (P51742 77-233 limits assumed): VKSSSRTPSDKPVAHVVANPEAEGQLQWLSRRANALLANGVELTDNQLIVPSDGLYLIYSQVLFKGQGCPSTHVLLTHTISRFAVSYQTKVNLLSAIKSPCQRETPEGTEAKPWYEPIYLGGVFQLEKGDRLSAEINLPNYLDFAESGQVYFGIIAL

For the substance “human TNFR-canine HCB control fusion protein (human TNFR extracellular domain fused N-terminally to canine HCB hinge-CH2-CH3) (Fc fusion)”, the inhibition of canine TNF-alpha bioactivity (1 ng/ml) in 293-HEK cells with NF-kB-EGFP reporter construct pTRH1; IC50 was 1 ng/ml.
